Assay results from the RNAGym collection of RNA variant scans (doi:10.7554/elife.80360).

B1: HDV Ribozyme (parent)
chain: GGCCGGCAUGGUCCCAGCCUCCUCGCUGGCGCCGGCUGGGCAACAUUCCGAGGGGACCGUCCCCUCGGUAAUGGCGAAUGGGACCCA

Variants of: B1
Assay: self-cleavage, relative activity (ratio to wild type); higher = more cleavage; co-transcriptional
For G1U G34U, the self-cleavage was 0.215.
In the case of G1U G35A, the self-cleavage is reported as 0.192.
Variant G1U G35U has a self-cleavage of 0.288.
For G1U G38U, the self-cleavage was 0.295.
Work on G1U G39A yielded a self-cleavage of 0.24.
In the case of G1U G40A, the self-cleavage is reported as 0.426.
Variant G1U G40U has a self-cleavage of 0.225.
In the case of G1U G50U, the self-cleavage is reported as 0.466.
Variant G1U G67U has a self-cleavage of 0.332.
G1U G68A gave a self-cleavage of 0.496.
In the case of G1U G73C, the self-cleavage is reported as 0.231.
In the case of G1U G73U, the self-cleavage is reported as 0.422.
In the case of G1U G80A, the self-cleavage is reported as 0.355.
G1U G80C showed a self-cleavage of 0.272.
Variant G1U G81A has a self-cleavage of 0.25.
Variant G1U G82A has a self-cleavage of 0.241.
For G1U G82C, the self-cleavage was 0.47.
With G1U G82U the self-cleavage was 0.389.
With G1U U27A the self-cleavage was 0.44.
For G1U U37C, the self-cleavage was 0.415.
In the case of G1U U46A, the self-cleavage is reported as 0.443.
For G1U U47C, the self-cleavage was 0.475.
G1U U60G gave a self-cleavage of 0.443.
G1U U69G gave a self-cleavage of 0.435.
Variant G1U U72G has a self-cleavage of 0.269.
In the case of G1U U79A, the self-cleavage is reported as 0.178.
With G1U U79C the self-cleavage was 0.332.
Variant G2A A43G has a self-cleavage of 0.0234.
Variant G2A A51G has a self-cleavage of 0.141.
Variant G2A A56C has a self-cleavage of 0.148.
G2A A56U gave a self-cleavage of 0.115.
Variant G2A A70C has a self-cleavage of 0.157.
G2A A70G gave a self-cleavage of 0.0511.
G2A A71U gave a self-cleavage of 0.106.
In the case of G2A C3G, the self-cleavage is reported as 0.123.
G2A C4A showed a self-cleavage of 0.0615.
In the case of G2A C4G, the self-cleavage is reported as 0.0563.
G2A C7A gave a self-cleavage of 0.
G2A C13A gave a self-cleavage of 0.0231.
Variant G2A C13G has a self-cleavage of 0.0282.
With G2A C14A the self-cleavage was 0.0804.
For G2A C15G, the self-cleavage was 0.0277.
G2A C19U showed a self-cleavage of 0.
Work on G2A C24A yielded a self-cleavage of 0.0815.
G2A C32U showed a self-cleavage of 0.194.
Work on G2A C33A yielded a self-cleavage of 0.0548.
For G2A C36G, the self-cleavage was 0.0764.
For G2A C36U, the self-cleavage was 0.537.
G2A C48A showed a self-cleavage of 0.17.
In the case of G2A C48G, the self-cleavage is reported as 0.157.
In the case of G2A C48U, the self-cleavage is reported as 0.216.
Work on G2A C63A yielded a self-cleavage of 0.198.
G2A C64A showed a self-cleavage of 0.248.
G2A C64U showed a self-cleavage of 0.18.
With G2A C75U the self-cleavage was 0.0715.
G2A C84G showed a self-cleavage of 0.0391.
For G2A C85U, the self-cleavage was 0.115.
For G2A C86A, the self-cleavage was 0.172.
For G2A C86U, the self-cleavage was 0.277.
Work on G2A G5A yielded a self-cleavage of 0.0343.
G2A G17U showed a self-cleavage of 0.0432.
G2A G28C showed a self-cleavage of 0.0415.
G2A G28U showed a self-cleavage of 0.0364.
For G2A G29A, the self-cleavage was 0.0288.
Variant G2A G34A has a self-cleavage of 0.0536.
G2A G35C gave a self-cleavage of 0.0326.
Work on G2A G67C yielded a self-cleavage of 0.0536.
With G2A G67U the self-cleavage was 0.157.
Work on G2A G73A yielded a self-cleavage of 0.0742.
With G2A G74C the self-cleavage was 0.0811.
For G2A G74U, the self-cleavage was 0.073.
With G2A G76U the self-cleavage was 0.332.
G2A G80A showed a self-cleavage of 0.0735.
Variant G2A G80C has a self-cleavage of 0.0378.
For G2A G82A, the self-cleavage was 0.0852.
With G2A G82U the self-cleavage was 0.0468.
For G2A U12A, the self-cleavage was 0.
G2A U12G gave a self-cleavage of 0.0405.
Work on G2A U20C yielded a self-cleavage of 0.0536.
For G2A U23A, the self-cleavage was 0.219.
For G2A U23C, the self-cleavage was 0.0511.
In the case of G2A U23G, the self-cleavage is reported as 0.0886.
G2A U27C showed a self-cleavage of 0.125.
Work on G2A U37C yielded a self-cleavage of 0.232.
With G2A U37G the self-cleavage was 0.
For G2A U60A, the self-cleavage was 0.208.
G2A U60G showed a self-cleavage of 0.314.
For G2A U72C, the self-cleavage was 0.0455.
G2A U72G showed a self-cleavage of 0.0906.
With G2C A42C the self-cleavage was 0.122.
Work on G2C A43C yielded a self-cleavage of 0.147.
Variant G2C A45U has a self-cleavage of 0.
G2C A51C gave a self-cleavage of 0.0308.
For G2C A51U, the self-cleavage was 0.0468.
Work on G2C A70C yielded a self-cleavage of 0.0248.
With G2C A77C the self-cleavage was 0.
G2C A83U showed a self-cleavage of 0.0791.
In the case of G2C C3A, the self-cleavage is reported as 0.103.
Work on G2C C3U yielded a self-cleavage of 0.102.
With G2C C4A the self-cleavage was 0.0282.
In the case of G2C C4G, the self-cleavage is reported as 0.794.
G2C C7U gave a self-cleavage of 0.089.
Variant G2C C13U has a self-cleavage of 0.153.
For G2C C14A, the self-cleavage was 0.0615.
G2C C14U showed a self-cleavage of 0.0504.
Variant G2C C15A has a self-cleavage of 0.0297.
G2C C15G gave a self-cleavage of 0.
In the case of G2C C18U, the self-cleavage is reported as 0.0615.
Work on G2C C21G yielded a self-cleavage of 0.0396.
Variant G2C C21U has a self-cleavage of 0.0615.
Work on G2C C22A yielded a self-cleavage of 0.114.
Work on G2C C22G yielded a self-cleavage of 0.0875.
G2C C22U showed a self-cleavage of 0.0567.
In the case of G2C C24G, the self-cleavage is reported as 0.0361.
G2C C24U gave a self-cleavage of 0.0405.
G2C C26G gave a self-cleavage of 0.113.
Variant G2C C36G has a self-cleavage of 0.26.
In the case of G2C C41U, the self-cleavage is reported as 0.0475.
Variant G2C C48U has a self-cleavage of 0.0923.
G2C C49A showed a self-cleavage of 0.0594.
In the case of G2C C49U, the self-cleavage is reported as 0.132.
Work on G2C C57U yielded a self-cleavage of 0.073.
Work on G2C C58U yielded a self-cleavage of 0.0256.
In the case of G2C C62G, the self-cleavage is reported as 0.0852.
Variant G2C C66U has a self-cleavage of 0.0373.
In the case of G2C C75U, the self-cleavage is reported as 0.0594.
Variant G2C C86G has a self-cleavage of 0.0252.
In the case of G2C G6A, the self-cleavage is reported as 0.0839.
Variant G2C G6C has a self-cleavage of 0.0386.
G2C G11C showed a self-cleavage of 0.155.
G2C G17U gave a self-cleavage of 0.0784.
For G2C G25C, the self-cleavage was 0.0346.
With G2C G29C the self-cleavage was 0.109.
G2C G31A gave a self-cleavage of 0.0382.
With G2C G34C the self-cleavage was 0.
G2C G38U gave a self-cleavage of 0.0764.
G2C G40C showed a self-cleavage of 0.122.
In the case of G2C G50U, the self-cleavage is reported as 0.0594.
G2C G53C gave a self-cleavage of 0.125.
In the case of G2C G59U, the self-cleavage is reported as 0.0343.
G2C G67C gave a self-cleavage of 0.113.
For G2C G81C, the self-cleavage was 0.0583.
G2C G81U showed a self-cleavage of 0.0203.
In the case of G2C G82C, the self-cleavage is reported as 0.0272.
Variant G2C U9A has a self-cleavage of 0.0755.
G2C U12C showed a self-cleavage of 0.175.
For G2C U20G, the self-cleavage was 0.
G2C U37G gave a self-cleavage of 0.
G2C U46C gave a self-cleavage of 0.0475.
Variant G2C U47A has a self-cleavage of 0.0208.
G2C U65G showed a self-cleavage of 0.0264.
Work on G2C U69A yielded a self-cleavage of 0.0252.
G2C U69G showed a self-cleavage of 0.157.
Variant G2C U72C has a self-cleavage of 0.142.
G2C U72G showed a self-cleavage of 0.0791.
Work on G2C U79A yielded a self-cleavage of 0.133.
Work on G2U A8C yielded a self-cleavage of 0.
G2U A42C showed a self-cleavage of 0.0297.
In the case of G2U A51C, the self-cleavage is reported as 0.0528.
With G2U A71C the self-cleavage was 0.0161.
With G2U A77C the self-cleavage was 0.0674.
Work on G2U A78G yielded a self-cleavage of 0.089.
G2U A87G showed a self-cleavage of 0.0468.
In the case of G2U C3A, the self-cleavage is reported as 0.0484.
In the case of G2U C13U, the self-cleavage is reported as 0.
G2U C14A showed a self-cleavage of 0.12.
In the case of G2U C15A, the self-cleavage is reported as 0.0231.
